The target of this assay is T1, PD1 antigen obtained by cleaving PD1-mFc with TEV protease, labeled with biotin (UniProt Q15116 25-170, limits assumed, labeled with biotin (site not stated)).
T1 construct: also called antigen PD1
As to the kind of experiment: Fortebio Octet, biotin-PD1 on SA sensor, antibody in solution. From the text:
2. […] The dissociation of antigen and antibody were also in PBST.

T1 sequence (Q15116 25-170 limits assumed): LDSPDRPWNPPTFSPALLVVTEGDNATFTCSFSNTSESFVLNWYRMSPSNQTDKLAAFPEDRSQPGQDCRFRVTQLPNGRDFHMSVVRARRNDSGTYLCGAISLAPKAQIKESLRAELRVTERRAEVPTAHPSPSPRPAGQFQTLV

B1: monoclonal antibody 14C12 (secreted by hybridoma cell line LT003) (antibody, V domains shown)
VH: EVKLVESGGGLVKPGGSLKLSCAASGFAFSSYDMSWVRQTPEKRLEWVATISGGGRYTYYPDSVKGRFTISRDNARNTLYLQMSSLRSEDTALYYCANRYGEAWFAYWGQGTLVTVSA
VL: DIKMTQSPSSMYASLGERVTFTCKASQDINTYLSWFQQKPGKSPKTLIYRANRLVDGVPSRFSGSGSGQDYSLTISSLEYEDMGIYYCLQYDEFPLTFGAGTKLEL
notes: Mouse antibody purified from hybridoma supernatant; also called PD1-14C12
Molecule B1 had a Kd of 0.0181 nM, a koff of 6.12e-06 s⁻¹ and a kon of 338000 M⁻¹ s⁻¹.

Values taken from patent US20190321466A1 (CTTQ AKESO SHANGHAI BIOMED TECH, published 2019).
